The data set has as its target rHDL-apoA-I (reconstituted discoidal HDL particles carrying apolipoprotein A-I).

B1: human PON1-192R (protein)
chain: AKLIALTLLGMGLALFRNHQSSYQTRLNALREVQPVELPNCNLVKGIETGSEDLEILPNGLAFISSGLKYPGIKSFNPNSPGKILLMDLNEEDPTVLELGITGSKFDVSSFNPHGISTFTDEDNAMYLLVVNHPDAKSTVELFKFQEEEKSLLHLKTIRHKLLPNLNDIVAVGPEHFYGTNDHYFLDPYLRSWEMYLGLAWSYVVYYSPSEVRVVAEGFDFANGINISPDGKYVYIAELLAHKIHVYEKHANWTLTPLKSLDFNTLVDNISVDPETGDLWVGCHPNGMKIFFYDSENPPASEVLRIQNILTEEPKVTQVYAENGTVLQGSTVASVYKGKLLIGTVFHKALYCEL
In the case of B1, the A2 (%), amplitude of the slow phase of inactivation on apoA-I rHDL is 87%; the “activation level of lactonase activity by rHDL-apoA-I, against 192Q” value is “about 2-fold higher activation level than 192Q”; the “stated: enzymatic activity stimulated by a 50-fold molar excess of rHDl-apoA-I (% Activity Stimulation, delipidated enzyme as reference), six substrates [panel B]” value is “dark bars: about 650 to 750 % with γ-dodecanoic lactone, δ-valerolactone and δ-nonanoic lactone, about 450 % with TBBL, about 200 to 250 % with phenyl acetate and paraoxon; higher than the 192Q bar with every lactone”.

B2: human PON1-192Q (protein)
chain: AKLIALTLLGMGLALFRNHQSSYQTRLNALREVQPVELPNCNLVKGIETGSEDLEILPNGLAFISSGLKYPGIKSFNPNSPGKILLMDLNEEDPTVLELGITGSKFDVSSFNPHGISTFTDEDNAMYLLVVNHPDAKSTVELFKFQEEEKSLLHLKTIRHKLLPNLNDIVAVGPEHFYGTNDHYFLDPYLQSWEMYLGLAWSYVVYYSPSEVRVVAEGFDFANGINISPDGKYVYIAELLAHKIHVYEKHANWTLTPLKSLDFNTLVDNISVDPETGDLWVGCHPNGMKIFFYDSENPPASEVLRIQNILTEEPKVTQVYAENGTVLQGSTVASVYKGKLLIGTVFHKALYCEL
Regarding B2, the A2 (%), amplitude of the slow phase of inactivation on apoA-I rHDL stood at 72%; the “stated: enzymatic activity stimulated by a 50-fold molar excess of rHDl-apoA-I (% Activity Stimulation, delipidated enzyme as reference), six substrates [panel B]” value was “white bars: about 280 % with γ-dodecanoic lactone, about 420 to 440 % with δ-valerolactone and δ-nonanoic lactone, about 250 % with TBBL, about 170 to 210 % with phenyl acetate and paraoxon; lower than the 192R bar with every lactone, close to it with phenyl acetate and paraoxon”.

B3: wt rePON1-192K (protein)
chain: MAKLTALTLLGLGLALFDGQKSSFQTRFNVHREVTPVELPNCNLVKGVDNGSEDLEILPNGLAFISSGLKYPGIMSFDPDKSGKILLMDLNEEDPVVLELGITGNTLDISSFNPHGISTFTDEDNTVYLLVVNHPDSSSTVEVFKFQEEEKSLLHLKTIRHKLLPSVNDIVAVGPEHFYATNDHYFADPYLKSWEMHLGLAWSFVTYYSPNDVRVVAEGFDFANGINISPDGKYVYIAELLAHKIHVYEKHANWTLTPLKSLDFDTLVDNISVDPVTGDLWVGCHPNGMRIFYYDPKNPPGSEVLRIQDILSEEPKVTVVYAENGTVLQGSTVAAVYKGKLLIGTVFHKALYCEL
In turn, B3 yielded an A2 (%), amplitude of the slow phase of inactivation on apoA-I rHDL of 100%; a Kapp (µM), substrate TBBL of 0.5 µM; a Kapp (µM), substrate paraoxon of 0.6 µM; a Kapp (µM), substrate phenyl acetate of 0.5 µM. The Kapp (µM), substrate γ-dodecanoic lactone turned out to be 1.2 µM; the Kapp (µM), substrate δ-nonanoic lactone is 1.3 µM; the Kapp (µM), substrate δ-valerolactone amounted to 1.3 µM; the Vmax (%), enzymatic activation by apoA-I rHDL, substrate TBBL is 791%. Moreover, the Vmax (%), enzymatic activation by apoA-I rHDL, substrate paraoxon was 222%; the Vmax (%), enzymatic activation by apoA-I rHDL, substrate phenyl acetate was found to be 425%; the Vmax (%), enzymatic activation by apoA-I rHDL, substrate γ-dodecanoic lactone came to 1830%; the Vmax (%), enzymatic activation by apoA-I rHDL, substrate δ-nonanoic lactone stood at 1580%. In addition, the Vmax (%), enzymatic activation by apoA-I rHDL, substrate δ-valerolactone amounted to 1720% and the “fold higher fraction of HDL-bound protein than the Q isozyme (from inactivation/stability measurements; reference rePON1-192Q)” value is “a 3-fold higher fraction of HDL-bound protein as revealed from the stability measurements”.

B4: rePON1-192Q (protein)
chain: MAKLTALTLLGLGLALFDGQKSSFQTRFNVHREVTPVELPNCNLVKGVDNGSEDLEILPNGLAFISSGLKYPGIMSFDPDKSGKILLMDLNEEDPVVLELGITGNTLDISSFNPHGISTFTDEDNTVYLLVVNHPDSSSTVEVFKFQEEEKSLLHLKTIRHKLLPSVNDIVAVGPEHFYATNDHYFADPYLQSWEMHLGLAWSFVTYYSPNDVRVVAEGFDFANGINISPDGKYVYIAELLAHKIHVYEKHANWTLTPLKSLDFDTLVDNISVDPVTGDLWVGCHPNGMRIFYYDPKNPPGSEVLRIQDILSEEPKVTVVYAENGTVLQGSTVAAVYKGKLLIGTVFHKALYCEL
B4 displayed an A2 (%), amplitude of the slow phase of inactivation on apoA-I rHDL of 70%; a Kapp (µM), substrate TBBL of 0.5 µM; a Kapp (µM), substrate paraoxon of 0.8 µM; a Kapp (µM), substrate phenyl acetate of 0.8 µM. Moreover, the Kapp (µM), substrate γ-dodecanoic lactone was determined as 0.6 µM; the Kapp (µM), substrate δ-nonanoic lactone amounted to 0.6 µM; the Kapp (µM), substrate δ-valerolactone stood at 1.1 µM; the Vmax (%), enzymatic activation by apoA-I rHDL, substrate TBBL worked out at 340%. Besides, the Vmax (%), enzymatic activation by apoA-I rHDL, substrate paraoxon turned out to be 128%; the Vmax (%), enzymatic activation by apoA-I rHDL, substrate phenyl acetate was determined as 165%; the Vmax (%), enzymatic activation by apoA-I rHDL, substrate γ-dodecanoic lactone was determined as 382%; the Vmax (%), enzymatic activation by apoA-I rHDL, substrate δ-nonanoic lactone is 778%. In addition, the Vmax (%), enzymatic activation by apoA-I rHDL, substrate δ-valerolactone was 481% and the “reduction of Vmax of stimulation by rHDL compared to wt rePON1-192K” value is 50-80% reduction of Vmax compared to wt rePON1-192K.

B5: rePON1-192R (protein)
chain: MAKLTALTLLGLGLALFDGQKSSFQTRFNVHREVTPVELPNCNLVKGVDNGSEDLEILPNGLAFISSGLKYPGIMSFDPDKSGKILLMDLNEEDPVVLELGITGNTLDISSFNPHGISTFTDEDNTVYLLVVNHPDSSSTVEVFKFQEEEKSLLHLKTIRHKLLPSVNDIVAVGPEHFYATNDHYFADPYLRSWEMHLGLAWSFVTYYSPNDVRVVAEGFDFANGINISPDGKYVYIAELLAHKIHVYEKHANWTLTPLKSLDFDTLVDNISVDPVTGDLWVGCHPNGMRIFYYDPKNPPGSEVLRIQDILSEEPKVTVVYAENGTVLQGSTVAAVYKGKLLIGTVFHKALYCEL
In turn, B5 came in with an A2 (%), amplitude of the slow phase of inactivation on apoA-I rHDL of 90%; a Kapp (µM), substrate TBBL of 0.4 µM; a Kapp (µM), substrate paraoxon of 0.8 µM; a Kapp (µM), substrate phenyl acetate of 0.8 µM. Moreover, the Kapp (µM), substrate γ-dodecanoic lactone is 0.9 µM; the Kapp (µM), substrate δ-nonanoic lactone amounted to 1.5 µM; the Kapp (µM), substrate δ-valerolactone was determined as 1.1 µM; the Vmax (%), enzymatic activation by apoA-I rHDL, substrate TBBL was 579%. Besides, the Vmax (%), enzymatic activation by apoA-I rHDL, substrate paraoxon came out at 200%; the Vmax (%), enzymatic activation by apoA-I rHDL, substrate phenyl acetate is 336%; the Vmax (%), enzymatic activation by apoA-I rHDL, substrate γ-dodecanoic lactone worked out at 1260%; the Vmax (%), enzymatic activation by apoA-I rHDL, substrate δ-nonanoic lactone is 1350%. The Vmax (%), enzymatic activation by apoA-I rHDL, substrate δ-valerolactone came to 1400%; the “fold higher fraction of HDL-bound protein than the Q isozyme (from inactivation/stability measurements; reference rePON1-192Q)” value is recorded as “a 3-fold higher fraction of HDL-bound protein as revealed from the stability measurements”; the “reduction of Vmax of stimulation by rHDL compared to wt rePON1-192K” value is reported as 10-30% reduction of Vmax.
